Measurements as given in US12065673B2, “Method for obtaining human brown/beige adipocytes” (ETABLISSEMENT FRANCAIS DU SANG, priority 2015, dated 2024).

Columns and labels:
Type in all cases: cell-based, human
[1] = tested on: adipogenic progenitor cells (pAdSCs); experiment: Adipogenic differentiation after BMP induction (QRT-PCR adipocyte markers, Oil red O); conditions: 50 ng/mL BMP for 3 days, recovered at day 10
Protocol: Total RNA was extracted from ASCs and purified by AllPrep DNA/RNA/Protein kit (Qiagen, Courtaboeuf, France) and dosed by nanodrop (Thermo Fischer, Courtaboeuf, France). RNA purity and integrity was checked using the Experion™ RNA Std Sens Reagents on the Experion automatisated system (Biorad). […] The reverse transcription (RT) was performed on 1 μg RNA by using high capacity cDNA reverse transcription kit (Applied Biosystem ™) and random hexamers in a final volume of 20 μL. The oligonucleotides for each target of interest, designed by using Primer Express software (PerkinElmer Life Sciences, Waltham, Mass.) were used (forward and reverse) and listed in table1. Quantitative PCR was performed on diluted cDNA (equivalent to 25 ng of starting purified RNA) using SSoFast EvaGreen Supermix (Biorad, Marnes-la-Coquette, France) with 500 nM of forward and reverse primers in a total volume of 20 μL on a CFX™ Real Time System (Biorad) following: 95° C., 3 minutes and 40 cycles of denaturation (95° C., 10 seconds) and primers hybridation and amplification (60° C., 30 seconds). […] Melt curves and appropriate No RT control were used to validate amplification specificity. Data were analysed on Bio-Rad CFX manager (threshold=0.2), exported to DataAssist Software v3.0 (Applied Biosystems). […] All real-time PCR reactions for the individual samples were performed in duplicate. […]

[2] = tested on: MSCs cultured in standard conditions; experiment: BMP7-induced differentiation of BM-MSCs cultured in standard conditions; conditions: BMP7 treatment
[3] = tested on: adipogenic progenitor cells (pAdSCs); experiment: Brown/beige marker UCP1 by western blotting and immuno-fluorescence; conditions: adipocytes from adipogenic progenitor cells; for UCP1 induction at protein level: western blotting and immuno-fluorescence
Protocol: Proteins which were extracted by AllPrep DNA/RNA/Protein kit (Qiagen, Courtaboeuf, France) were subjected to the Western blot analysis. Briefly, eluate from DNA and RNA retention columns was precipitated by APP buffer (v/v), centrifuged (10,000 g, 10 min), washed by ethanol 70%, and air dried. Pellets were dissolved in ALO buffer (Qiagen, Courtaboeuf, France), sonicated and protein content was determined by Bicinchoninic Acid method (Pierce). After denaturation (95° C., 5 min), proteins were separated by 12% Tris-glycine-SDS polyacrylamide gel electrophoresis, and subsequently transferred to polyvinylidene difluoride membrane (PVDF). The proteins were detected with Rabbit polyclonal Ab anti-human SOX2 (ab97959; Abcam, Cambridge, UK), anti-human OCT4 (ab19857, Abcam), anti-human NANOG (SC33759; SantaCruz, Dallas, Tex.), anti-human PRDM16, anti-human UCP1, or with Mouse monoclonal Ab anti-human PPARG, anti-βActin and anti-RUNX2 (Abcam) antibodies. […] The Pactin was used as internal positive control (Sigma).
After expansion, ASC- or EGM-2-derived cells were also cultured in chamber slides and after becoming confluent, cells were induced to differentiate into brown/beige adipocytes. After 7 days, the cells were stained with anti-UCP1 antibody (Alpha Diagnostic, San-Antonio, Tex.), and then with Alexa488-labeled goat anti-mouse secondary antibody (Invitrogen). The staining was read by using confocal microscope (Zeiss 510, Zeiss, Oberkochen, Germany).

[4] = tested on: EGM2-derived Bone Marrow-MSCs; experiment: BMP7-induced differentiation of BM-MSCs (QRT-PCR)
standard ASCs = experiment: Osteoblastic marker expression after BMP induction; conditions: 50 ng/mL BMP for 3 days

| Molecule | adipocyte generation after BMP treatment [1] | differentiation outcome of MSCs [2] | UCP1 induction, BMP7 compared with BMP4 [3] | UCP1 induction at protein level [3] | expression of adipogenic and brown/beige genes (UCP1, CIDEA) [4] | osteoblastic marker expression after BMP treatment (standard ASCs) |
| --- | --- | --- | --- | --- | --- | --- |
| BMP7: recombinant human BMP7 (RnD system's), pro-beige/brown adipocyte factor (protein, UniProt P18075 293-431, looked up) Bone morphogenetic protein 7: STGSKQRSQNRSKTPKNQEALRMANVAENSSSDQRQACKKHELYVSFRDLGWQDWIIAPEGYAAYYCEGECAFPLNSYMNATNHAIVQTLVHFINPETVPKPCCAPTQLNAISVLYFDDSSNVILKKYRNMVVRACGCH | generated clearly defined adipocytes | differentiate into osteoblastic cells solely | more potent and reliable | strongly induced | triggered expressions of adipogenic and UCP1, CIDEA genes | expressed high levels of osteoblastic markers |
| Bone Morphogenetic Protein 4 (protein, UniProt P12644 293-408, looked up, recombinant human Bone Morphogenetic Protein 4 (Miltenyi), adipogenic/browning agent) Bone morphogenetic protein 4: SPKHHSQRARKKNKNCRRHSLYVDFSDVGWNDWIVAPPGYQAFYCHGDCPFPLADHLNSTNHAIVQTLVNSVNSSIPKACCVPTELSAISMLYLDEYDKVVLKNYQEMVVEGCGCR | generated clearly defined adipocytes |  |  | strongly induced |  | expressed high levels of osteoblastic markers |
